The experiment concerns the target taxol-polymerized microtubules from bovine brain tubulin (bovine (purified from bovine brain), UniProt Q6B856 1-445). Put plainly: cell-based or functional assay.

B1: Homo sapiens Kif15 motor domain with cover strand and neck linker (Kif15 1-375) (domain or fragment, human, UniProt Q9NS87 1-375, looked up)
chain: MAPGCKTELRSVTNGQSNQPSNEGDAIKVFVRIRPPAERSGSADGEQNLCLSVLSSTSLRLHSNPEPKTFTFDHVADVDTTQESVFATVAKSIVESCMSGYNGTIFAYGQTGSGKTFTMMGPSESDNFSHNLRGVIPRSFEYLFSLIDREKEKAGAGKSFLCKCSFIEIYNEQIYDLLDSASAGLYLREHIKKGVFVVGAVEQVVTSAAEAYQVLSGGWRNRRVASTSMNRESSRSHAVFTITIESMEKSNEIVNIRTSLLNLVDLAGSERQKDTHAEGMRLKEAGNINRSLSCLGQVITALVDVGNGKQRHVCYRDSKLTFLLRDSLGGNAKTAIIANVHPGSRCFGETLSTLNFAQRAKLIKNKAVVNEDTQG
B1: the “MT activation of Mant-ADP release, stopped flow, 25°C, various MT concentrations with chasing Mg2+-ATP (MTs here from pig brain tubulin; preliminary data)” value was around 1000 fold.

Values taken from article PMC3919264, “The crystal structure and biochemical characterization of Kif15: a bifunctional molecular motor involved in bipolar spindle formation and neuronal development” (Acta Crystallographica Section D: Biological Crystallography, 2013).
